Data reported in a protein production outcome set (Wang et al. 2014).

Assay: label from the status in PepcDB records
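Further: failed if final PepcDB status was selected cloned or expressed and not failed if soluble or beyond.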

## MELSINILNIIGILLEIGVSIYIIISEKKKSKNRNSEAENDLIQQTNNIINNTQGDNASFNYTNVLMQSKYQERAYREILNDLGDKKENKQKSKYGKKCSYLRKVINIVCLGIGGFWAFYYFDLMKITSFNTYLLNVLFQTIYTLATFILIFSLSNFVKLFLIHFKEYNYIVLRKIQLFLTTLFALLGATIWLYFDWRANFRPLFNMYTESSYYTLGIIMLGLVFYVFHQMAQSFLLNNIWVPKKAVKILFVSLIFSLIASICLFI
  protein production: failed

## MNQHLLGNPKLTVTHVNEVKAGINHIVVDSVQYGNQEMIMEKDGTVEMRDGEKLYINIFRPNKDGKFPVVMSADTYGKDNKPKITNMGALWPTLGTIPTSSFTPEESPDPGFWVPNDYVVVKVALRGSDKSKGVLSPWSKREAEDYYEVIEWAANQSWSNGNIGTNGVSYLAVTQWWVASLNPPHLKAMIPWEGLNDMYREVAFHGGIPDTGFYRFWTQGIFARWTDNPNIEDLIQAQQEHPLFDDFWKQRQVPLSQIKTPLLTCASWSTQGLHNRGSFEGFKQAASEEKWLYVHGRKEWESYYARENLERQKSFFDFYLKEENNDWKDTPHVIYEVRDQFYKGEFKSASAFPLPNAEYTPLYLNAENHTLNHAKISSAHVAQYDSEDKQQDVSFKYTFDKDTELVGNMNLKLWVSTKDSDDMDLFAGIKKLDRRGNEVNFPDFNHIENGQVATGWLRVSHRELDQEKSSIAQPWHKHETELKLSQDEIVPVEIELLPSGTLFKQGETLEVVVKGSEIVIGNSTPGMKTRYEHEETVNKGMHMIYTGGKYDSQLIIPIVN
  protein production: not failed

## MFLTAVNPQPLSTPSWQIETKYSTKVLTGNWMEERRKFTRDTDKTPQSIYRKEYIPFPDHRPDQISRWYGKRKVEGLPYKHLITHHQEPPHRYLISTYDDHYNRHGYNPGLPPLRTWNGQKLLWLPEKSDFPLLAPPTNYGLYEQLKQRQLTPKAGLKQSTYTSSYPRPPLCAMSWREHAVPVPPHRLHPLPHF
  protein production: failed

## MTMTRERLYLFDTTLRDGQQTPGIDFSVEDKIAIAKLLDEFGMDYVEGGYPGANPTDTAFFQQKRTASAKFVAFGMTKRAGVSASNDPGLAALVQSKSDAICFVAKSWDYHVRVALGCTNEENLESIKTSVETAVASGKEAMVDCEHFFDGFKANPDYALACAKTAYDAGARWVVLCDTNGGTQPSEVRTIVAKVIASSIPGDHLGIHAHDDTGQAVANSLAAVEAGVRQIQGTLNGIGERCGNANLISIVPTLALKPAFADRFVSGISAEALTGISRLSRAFDELLNRAPEAQAPYVGASAFATKAGIHASALAKEPATYEHVPPESVGNRRRVMVSDQGGKANFLAELKRRGIEVPRDDHRLDALISVVKEREAEGYAYEGADASFELLARKMLHGLPEFFNVTSFRCMVERRFDANGNLKTVSEAIVKVEVDGEEKMSVAEGHGPVNALDIALRKDLGKYQSEIVDLELADFKVRILNGGTEAITRVLIESHDGTGARWWTVGVSENIIDASFQALMDSIIYKLMKNREMAGLVAAE
  protein production: failed

## QQKLAANVFKNSQDGVLIYDADGKLTLMNPAFTDIFGYQMSELSNIPMLTLFDGHHFTTSTSLITESIQRFGQWHGEVLEKDKYGAELPLYVKASKIIDTEQYGQNSYIFIFTNLS
  protein production: failed

## MTIISTIFFFSFSVFFVIRYLKLKKIYDLLMIFVGLYAGLINMKLMSLSTTVSYVLDTIVIVLVIISVILFLKDKKNY
  protein production: failed

## MQYANAYQAYQHNRVSVESPAKLIEMLYEGILRFSSQAKRCIENEDIEKKIYYINRVTDIFTELLNILDYEKGGEVAVYLTGLYTHQIKVLTQANVENDASKIDLVLNVARGLLEAWREIHSDELA
  protein production: failed

## MLSVIIITKNEEANIRRCLESVHFADEIIVLDSGSTDNTLAIAREYTDKVFSTDWQGYGIQKDRALQKAQGDWVLNLDADESVSSELRQEILQAISSDTADAFRIPIQMIFYNQVLKYSGSPKRHIRLFKRENASYSKDIVHEKVLIPVNARVGKLKKPIWHHSFSDVHHVLYKLNKYSSYSAKIRIESNEKVGLVKTFFSALWMFVRCLFLQKGFLDGRAGFLFAVFGAQGAFYRGVKQIYKDRDINKLPSVNHIKEELEHHHHHH
  protein production: not failed

## MIRAASDDPAGVDELVAAIAPGLAGLGLPVINRREVVLVTGPWLAGVSGVRAALAERLPQRRFVETAELGPGDAPVAVVFVVSAATALTESDCVLLDTAAEHTDAVVAVVSKIDVHRGWRDVLTSNRDRLAARASRYARVPWVGAAAAPELGEPYLDDLVAAIQKQLADPAVARRNMLRAWESRLLMVARRFDGDAQSAGRRARVDALRQQRRTVLRQGRQSKSEHTIALRAQIQHARVKLSYFARNRCSLLRVELQEHVAGLSRKDIARFAAYTRGRVQEVVAEVGEGAVAHLADVAQLLGVPVQPPVLENLPAVLPTVVAPPLTSRRLEIRLTTLLGAGFGLGIALTLSRLVAGLTPGLAASGMVAGVAIGLAVTAWVVNARALLHDRVVVDRWTGEVTASLRSVVEQLVATRVVAVETLLSTAISERDDAENARVADQVSIIDGELREHAVAAARAAALRDREMPAVRAALEAVRAELGEPGAPTTGLF
  protein production: failed

## MARSKVKNLLLLKQIHSAVSQIKKGKLDKALETLDKAETSARQSKSTDALYYILFTRGGILYSAKEYDQALEAYEKALEAGSDLLKTDPENADYQHYMGTTLSNTGNLLKKKSEIDKADEYYSQARKIYFDLIKKDPQNAVYQSYAGENLNNYGELLMESGSLEKACEILREAIEIYEKLYKEKPDNLGYQAELSVALSQLGGCLKHQVPEESGAAKEKLEKALELQESLLDQQPENEKVKEAIALTEERLKGL
  protein production: failed

## MTSLNVLVAVCMAYVILLFGVAFAADRLSSTGRTTWLRSPLVYTLSLSIYCTAWTFYGAVGYAARSGLEFVTIYLGPTLVMIGWWWGLRKLVRVGRSQRVTSIADLISSRYGKSNTLAVCVTLLAVIGVTPYIALQLQSITLSFDIFAEADPVSRPGEGSSAFWVACGLAVFAILFGTRNLDANERHHGVVTAVAIEAVVKLVALLAVGVFVVWGIAGGLGDTLARIDASEIGVWQVDHGRWATITFLAAAAFVCLPRMFQVMVVENDDERHLRTAAWAFPLYLMLMSLFVVPIAVVGLELMPEGANPDLFVLTIPLAEGQETLAMLSFLGGFSSATSMVIVAAMALSTMVSNHIVMPIWLNAQGSGASVSGDVRSVVLYARRVSIAVILALGYFYYRLSGGGAALASIGLIAFAGIAQILPALVGGLFWRGATRTGALVGLTVGFVLWLYTLLLPGMGAGVIAPQVMEHGLFGLSWLRPQALFGIAGMDPMVHSVMWSLSLNTAAFCIASLLSFPSPLERLQGAQFVNVFDHSAGPRGWTGSVAQSEDLMIMSQRIMGAREAQEFFQSEAMAQGSRAYLPEPTPAFLERLERELSGSVGAATAHAMIGQIVGGSSVSVEDLLAVADESAQLLEYSSRLEAKSAELSRTARKLREANEKLTQISLQKDAFLSQISHELRTPMTSIRAFSEILRDTDGLAPVDKTRYAAIIHDEALRLTRLLDDLLDLSVLENGQVTLNMGQGRLVDVLDRAMATALTGTDRPLRVRRHRGAERIVLRTDLDRLSQVFINLITNAQKYCDAADPELSVTVHDVGGRIVVDLIDNGSGIPRDARKMVFEKFARVGAEKAGGAGLGLAICREIMQRLGGDISYLSGQEGGAFRVSLPVGMEIAAQ
  protein production: failed

## MGKKYEIFLNENEHSLITPKVSFKEILRYYYLYPKNAIPSFKLPFFKPDLSGFSTPHITWLGHSSLFISFKEYKILIDPIFNTHASPISFINKAFKNAPVYNINDFNEIFAVIITHSHFDHLDAKSVKALKDKAKFFITPLKVGNYLKSYGVSEKKIIELDWWSGIEFGDLKIMATPAQHSSSRGDGKNKTLWASFVMEFLSVDKRVFFSADGGYFTHFKKIGEYFGSFDLACLESGQFNIAWPYSHSFPEQILKEAKDLNAKAVMPIHWGRFLAGTHAWNEVVKFLYENLDLPLITPKMGEAYEVGAKLEHHHHHH
  protein production: not failed

## MRFKAIFVRVTKELLRDKRTLALMLVAPVLVLTLMYFIFDTNNDVNLEVGVDESVPNKIVNALPSDKVKIKEYDSPSSIKKTIVNSDLDAYIEKKGDKLDVTYKNENPSNTGTTKQLLGSAIQKNKLQDMAKVINKIPSNIKQGNSAQGEQITLDNHYLYGNSDSTFFDKMFPILIGFFVFFFVFLISGIALLRERTKGTLERLLATSVKRSEIVFGYLAGYGMFAVLQTLIIVFYAIYLLKIDVAGSIWWVLLINILIALSALAMGIFVSTFANSEFQMVQFIPLVVIPQVFFSGIIPLDNVADWVSSIGYIFPLRYAGDALTNIMIKGEGFNNIWFDLSILLVFIIGFTVLNIIGLKRYRKV
  protein production: not failed
